Source: article PMC3276543, “Structural Basis of Transcriptional Gene Silencing Mediated by Arabidopsis MOM1” (PLoS Genetics, 2012)

Molecular target: the molecule itself
Experiment: crystal structure; hanging drop vapor diffusion at 4°C, 0.1 M Tris pH 8.5, 0.3 M magnesium formate dihydrate; SAD phasing with seleno-methionine protein; native data to 3.2 Å

B1: MOM1 fragment corresponding to amino acid positions 1700 to 1814 (CMM2-containing protein fragment) (domain or fragment, Arabidopsis thaliana, UniProt Q9M658 1700-1814, looked up)
chain: HSAGVTALVPSLLNNGTEQIAVQPVPQIPFPVFNDPFLHELEKLRRESENSKKTFEEKKSILKAELERKMAEVQAEFRRKFHEVEAEHNTRTTKIEKDKNLVIMNKLLANAFLSK
notes: MORPHEUS' MOLECULE1 (MOM1), Arabidopsis thaliana, protein of 2001 amino acids, residues 1700-1814; residues 1729-1811 are ordered in the crystal; A seleno-methionine-containing form (E. coli strain 834) was used for phasing only; the 3.2 A data set is of the native protein; also called CMM2 protein fragment; CMM2 domain
B1 was tested, and the “stoichiometry N” value was 2.
